Results reported in patent US10729768B2, “Combination of anti-CD20 antibody and PI3 kinase selective inhibitor” (TG Therapeutics, Inc., priority 2012, dated 2020).

What was measured:
Type in all cases: cell-based
Daudi cells = assay: cell cycle assay, flow cytometry; conditions: for G0/G1, percentage of the cell population / G2/M, percentage of the cell population / S, percentage of the cell population / Sub G0, percentage of the cell population: 72 h
Experimental: (§1) A cell cycle assay reagent (Millipore) was used to determine the effect of S-isomer of a compound of formula A, UBX, and combinations thereof on the cell cycle in cancerous cells. […] The cells were transferred to microfuge tubes to receive 50 μl of cell cycle reagent and incubated for 30 minutes at RT away from light. Cells were then diluted with 300-400 μl PBS, and a minimum of 10,000 events were acquired on a Guava® easyCyte™ flow cytometer. The data was analyzed with Express Pro software and the percentage of the cell population in different cell cycle stages with respect to control was presented in histograms.

Raji Cells [1] = assay: cell cycle assay, flow cytometry; conditions: for G0/G1, percentage of the cell population / G2/M, percentage of the cell population / S, percentage of the cell population / Sub G0, percentage of the cell population: 72 h
Experimental: as §1

LY1 Cells = assay: in situ caspase-3 kit, caspase 3 activity and combination index (Example 5); conditions: for Caspase 3 Activity: LY1 cells, 24 hrs
Experimental: (§2) In order to determine the effect of S-isomer of a compound of formula A, UBX, and combinations thereof on apoptosis in cancer cells, an in situ caspase-3 kit (Millipore) was used. CELLS were plated in a 6 well plate at a concentration of 0.5×10^6 cells/ml, treated with either S-isomer of a compound of formula A (200-5000 nM), UBX (10,000 ng/ml to 10 ng/ml), or UBX with S-isomer of a compound of formula A (as indicated), and incubated for 24 hrs at 37° C. and 5% CO2. The cells were then transferred to microfuge tubes to receive 10 μl of freshly prepared FLICA™ reagent and incubated for 1 hour at 37° C. and 5% CO2 away from light. After extensive washes with wash buffer, test samples were adjusted to equalize the number of cells in PBS. 100 μl of each cell suspension was transferred to black 96-well plates in duplicates, and the fluorescence was read at an excitation wavelength of 490 nm and an emission wavelength of 520 nm in a plate reader. The fluorescence intensity for a DMSO control was subtracted from that of test compounds. Data was expressed as caspase-3 activity a combination index (C.I.) calculated.

Raji Cells [2] = assay: as above; conditions: 24 hrs; for Caspase 3 Activity: Raji cells
Experimental: as §2

B1: UBX: monoclonal antibody that targets a specific and unique epitope on CD20, bioengineered for enhanced clinical activity and potency (antibody, V domains shown)
VH: QAYLQQSGAELVRPGASVKMSCKASGYTFTSYNMHWVKQTPRQGLEWIGGIYPGNGDTSYNQKFKGKATLTVGKSSSTAYMQLSSLTSEDSAVYFCARYDYNYAMDYWGQGTSVTVSS
VL: QIVLSQSPAILSASPGEKVTMTCRASSSVSYMHWYQQKPGSSPKPWIYATSNLASGVPARFSGSGSGTSYSFTISRVEAEDAATYYCQQWTFNPPTFGGGTRLEIK
modifications: antibody fragment
- G0/G1, percentage of the cell population (Daudi cells; UBX 0.001 ng/ml): 38.12
- G2/M, percentage of the cell population (Daudi cells; UBX 0.001 ng/ml): 41.95
- S, percentage of the cell population (Daudi cells; UBX 0.001 ng/ml): 17.90
- Sub G0, percentage of the cell population (Daudi cells; UBX 0.001 ng/ml): 2.03
- G0/G1, percentage of the cell population (Daudi cells; UBX 0.01 ng/ml): 36.24
- G2/M, percentage of the cell population (Daudi cells; UBX 0.01 ng/ml): 37.83
- S, percentage of the cell population (Daudi cells; UBX 0.01 ng/ml): 19.15
- Sub G0, percentage of the cell population (Daudi cells; UBX 0.01 ng/ml): 6.77
- G0/G1, percentage of the cell population (Daudi cells; UBX 0.1 ng/ml): 37.40
- G2/M, percentage of the cell population (Daudi cells; UBX 0.1 ng/ml): 32.42
- S, percentage of the cell population (Daudi cells; UBX 0.1 ng/ml): 17.06
- Sub G0, percentage of the cell population (Daudi cells; UBX 0.1 ng/ml): 13.42
- G0/G1, percentage of the cell population (Daudi cells; UBX 1 ng/ml): 40.52
- G2/M, percentage of the cell population (Daudi cells; UBX 1 ng/ml): 26.99
- S, percentage of the cell population (Daudi cells; UBX 1 ng/ml): 17.54
- Sub G0, percentage of the cell population (Daudi cells; UBX 1 ng/ml): 14.95
- G0/G1, percentage of the cell population (Daudi cells; UBX 10 ng/ml): 40.92
- G2/M, percentage of the cell population (Daudi cells; UBX 10 ng/ml): 28.08
- S, percentage of the cell population (Daudi cells; UBX 10 ng/ml): 13.23
- Sub G0, percentage of the cell population (Daudi cells; UBX 10 ng/ml): 17.77
- G0/G1, percentage of the cell population (Daudi cells; UBX 100 ng/ml): 43.66
- G2/M, percentage of the cell population (Daudi cells; UBX 100 ng/ml): 28.55
- S, percentage of the cell population (Daudi cells; UBX 100 ng/ml): 9.28
- Sub G0, percentage of the cell population (Daudi cells; UBX 100 ng/ml): 19.55
- cell cycle effect (Daudi cells; 72 hours): increased the number of Sub GO cells
- G0/G1, percentage of the cell population (Raji Cells [1]; UBX 0.001 ng/ml): 50.52
- G2/M, percentage of the cell population (Raji Cells [1]; UBX 0.001 ng/ml): 33.66
- S, percentage of the cell population (Raji Cells [1]; UBX 0.001 ng/ml): 10.61
- Sub G0, percentage of the cell population (Raji Cells [1]; UBX 0.001 ng/ml): 4.35
- G0/G1, percentage of the cell population (Raji Cells [1]; UBX 0.01 ng/ml): 54.54
- G2/M, percentage of the cell population (Raji Cells [1]; UBX 0.01 ng/ml): 25.08
- S, percentage of the cell population (Raji Cells [1]; UBX 0.01 ng/ml): 12.65
- Sub G0, percentage of the cell population (Raji Cells [1]; UBX 0.01 ng/ml): 5.51
- G0/G1, percentage of the cell population (Raji Cells [1]; UBX 0.1 ng/ml): 41.11
- G2/M, percentage of the cell population (Raji Cells [1]; UBX 0.1 ng/ml): 22.00
- S, percentage of the cell population (Raji Cells [1]; UBX 0.1 ng/ml): 8.93
- Sub G0, percentage of the cell population (Raji Cells [1]; UBX 0.1 ng/ml): 23.73
- G0/G1, percentage of the cell population (Raji Cells [1]; UBX 1 ng/ml): 39.72
- G2/M, percentage of the cell population (Raji Cells [1]; UBX 1 ng/ml): 15.35
- S, percentage of the cell population (Raji Cells [1]; UBX 1 ng/ml): 14.82
- Sub G0, percentage of the cell population (Raji Cells [1]; UBX 1 ng/ml): 27.32
- G0/G1, percentage of the cell population (Raji Cells [1]; UBX 10 ng/ml): 45.01
- G2/M, percentage of the cell population (Raji Cells [1]; UBX 10 ng/ml): 12.90
- S, percentage of the cell population (Raji Cells [1]; UBX 10 ng/ml): 8.15
- Sub G0, percentage of the cell population (Raji Cells [1]; UBX 10 ng/ml): 31.86
- G0/G1, percentage of the cell population (Raji Cells [1]; UBX 100 ng/ml): 22.19
- G2/M, percentage of the cell population (Raji Cells [1]; UBX 100 ng/ml): 33.74
- S, percentage of the cell population (Raji Cells [1]; UBX 100 ng/ml): 11.05
- Sub G0, percentage of the cell population (Raji Cells [1]; UBX 100 ng/ml): 34.78
- cell cycle effect (Raji Cells [1]; 72 hours): increased the number of Sub GO cells
- caspase-3 activity (LY1 Cells; LY1, 24 hrs): induced
- Caspase 3 Activity (LY1 Cells; UBX 10 ng/ml): 0.23
- Caspase 3 Activity (LY1 Cells; UBX 100 ng/ml): 0.32
- Caspase 3 Activity (LY1 Cells; UBX 1000 ng/ml): 0.53
- Caspase 3 Activity (LY1 Cells; UBX 10,000 ng/ml): 0.59
- Caspase 3 Activity (Raji Cells [2]; UBX 10 ng/ml): 0.18
- Caspase 3 Activity (Raji Cells [2]; UBX 100 ng/ml): 0.31
- Caspase 3 Activity (Raji Cells [2]; UBX 1000 ng/ml): 0.51
- Caspase 3 Activity (Raji Cells [2]; UBX 10,000 ng/ml): 0.60
- caspase-3 activity (Raji Cells [2]; Raji): induced
